The series deals with the molecule itself. Kind of series: crystal structure; Form I crystals, P4(3)2(1)2, 3.4 Å; Tn3 resolvase mixed with site III DNA duplex in a 2:1.25 molar ratio; one dimer-site III DNA complex in the asymmetric unit; step: two subunits in the DNA-bound dimer.

B1: Tn3 resolvase (wild-type, with SHHHHHH added after the natural C-terminus) (enzyme, transposon Tn3, UniProt P0ADI2 1-185, looked up)
chain: MRIFGYARVSTSQQSLDIQIRALKDAGVKANRIFTDKASGSSTDREGLDLLRMKVEEGDVILVKKLDRLGRDTADMIQLIKEFDAQGVAVRFIDDGISTDGDMGQMVVTILSAVAQAERRRILERTNEGRQEAKLKGIKFGRRRTVDRNVVLTLHQKGTGATEIAHQLSIARSTVYKILEDERAS
notes: Tn3 resolvase, wild type, encoded by the Tn3 transposon; GenBank CAA23885.1; The 7 C-terminal residues (SHHHHHH) were disordered in the crystal structure; also called WT Tn3 resolvase; source: E. coli Rosetta DE3 pLysS from plasmid pSA1121; not shown: SHHHHHH (Ser-His6), C-terminal, kept
B1: the binding result is “binds”.
